Where a chain is given by its changes, count along the chain named.
B1: HER2-OB1×GXP2 bispecific antibody (bispecific antibody, human IgG1, kappa, L234A L235A)
heavy 1: not shown
heavy 2: EVQLVESGGGLVQPGGSLKLSCAASGFTFNTYAMNWVRQAPGKGLEWVARIRSKYNNYATYYADSVKDRFTISRDDSKNTAYLQMNNLKTEDTAMYYCVRHGNFGNSYVSWFAYWGQGTLVTVSSASTKGPSVFPLAPSSKSTSGGTAALGCLVKDYFPEPVTVSWNSGALTSGVHTFPAVLQSSGLYSLSSVVTVPSSSLGTQTYICNVNHKPSNTKVDKKVEPKSCDKTHTCPPCPAPEAAGGPSVFLFPPKPKDTLMISRTPEVTCVVVDVSHEDPEVKFNWYVDGVEVHNAKTKPREEQYNSTYRVVSVLTVLHQDWLNGKEYKCKVSNKALPAPIEKTISKAKGQPREPQVYTLPPSRDELTKNQVSLTCLVKGFYPSDIAVEWESNGQPENNYKTTKKKLDSDGSFFLYSKLTVDKSRWQQGNVFSCSVMHEALHNHYTQKSLSLSPGK
light: DIQMTQEPSLTTSPGGTVTLTCRSSTGAVTTSNYANWVQEKPGQAPRGLIGGTNKRAPGTPARFSGSLIGGKAALTITGVQPEDEAIYFCALWYSNLWVFGGGTKLEIKRTVAAPSVFIFPPSDEQLKSGTASVVCLLNNFYPREAKVQWKVDNALQSGNSQESVTEQDSKDSTYSLSSTLTLSKADYEKHKVYACEVTHQGLSSPVTKSFNRGEC
notes: also called HER2×GXP2; Her2×GXP2
B2: HER2-OB1×GXP bispecific antibody (bispecific antibody)
chain 1: not shown
chain 2: B1 heavy 2 with Q3K, V5L, G15K, K78Q, N79S, T80I, A81L
chain 3: QAVVTQESALTTSPGETVTLTCRSSTGAVTTSNYANWVQEKPDHLFTGLIGGTNKRAPGVPARFSGSLIGDKAALTITGAQTEDEAIYFCALWYSNLWVFGGGTKLVTMEIKRTVAAPSVFIFPPSDEQLKSGTASVVCLLNNFYPREAKVQWKVDNALQSGNSQESVTEQDSKDSTYSLSSTLTLSKADYEKHKVYTCEVTHQGLSSPVTKSFNRGEC

Assays:
[1] = molecular target: HER2 on tumor cell lines (SKBR-3, NCI-N87, MCF-7; 293F as HER2-negative control) (human, UniProt P04626 23-1255); assay: cell-based or functional assay
[2] = molecular target: T1, human CD3 antigen (human, UniProt P07766 23-126); assay: ELISA, CD3 antigen coated on plate, anti-human IgG-peroxidase detection
T1 construct: also called antigen CD3
T1 sequence (P07766 23-126): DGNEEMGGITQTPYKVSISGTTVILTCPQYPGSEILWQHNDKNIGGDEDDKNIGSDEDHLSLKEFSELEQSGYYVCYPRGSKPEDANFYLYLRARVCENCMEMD

Binder | EC50 of PBMC-mediated killing of NCI-N87 cells (LDH release) [1] [µg/mL] | EC50 of PBMC-mediated killing of SKBR-3 cells (LDH release), fold lower than Herceptin [1] | EC50 [2] [µg/mL]
B1 | 0.000395 | > 100 times lower than Herceptin | 1.4
B2 | – | – | 3.15
